The chains are these.
B2: sarco(endo)plasmic reticulum Ca^2+-ATPase 1 (SERCA1) (enzyme)
chain: MEAAHSKSTEECLAYFGVSETTGLTPDQVKRHLEKYGHNELPAEEGKSLWELVIEQFEDLLVRILLLAACISFVLAWFEEGEETITAFVEPFVILLILIANAIVGVWQERNAENAIEALKEYEPEMGKVYRADRKSVQRIKARDIVPGDIVEVAVGDKVPADIRILSIKSTTLRVDQSILTGESVSVIKHTEPVPDPRAVNQDKKNMLFSGTNIAAGKALGIVATTGVSTEIGKIRDQMAATEQDKTPLQQKLDEFGEQLSKVISLICVAVWLINIGHFNDPVHGGSWIRGAIYYFKIAVALAVAAIPEGLPAVITTCLALGTRRMAKKNAIVRSLPSVETLGCTSVICSDKTGTLTTNQMSVCKMFIIDKVDGDFCSLNEFSITGSTYAPEGEVLKNDKPIRSGQFDGLVELATICALCNDSSLDFNETKGVYEKVGEATETALTTLVEKMNVFNTEVRNLSKVERANACNSVIRQLMKKEFTLEFSRDRKSMSVYCSPAKSSRAAVGNKMFVKGAPEGVIDRCNYVRVGTTRVPMTGPVKEKILSVIKEWGTGRDTLRCLALATRDTPPKREEMVLDDSSRFMEYETDLTFVGVVGMLDPPRKEVMGSIQLCRDAGIRVIMITGDNKGTAIAICRRIGIFGENEEVADRAYTGREFDDLPLAEQREACRRACCFARVEPSHKSKIVEYLQSYDEITAMTGDGVNDAPALKKAEIGIAMGSGTAVAKTASEMVLADDNFSTIVAAVEEGRAIYNNMKQFIRYLISSNVGEVVCIFLTAALGLPEALIPVQLLWVNLVTDGLPATALGFNPPDLDIMDRPPRSPKEPLISGWLFFRYMAIGGYVGAATVGAAAWWFMYAEDGPGVTYHQLTHFMQCTEDHPHFEGLDCEIFEAPEPMTMALSVLVTIEMCNALNSLSENQSLMRMPPWVNIWLLGSICLSMSLHFLILYVDPLPMIFKLKALDLTQWLMVLKISLPVIGLDEILKFIARNYLEDPEDERRK
notes: One entry covers native rabbit SERCA1 (SR vesicles) and untagged recombinant rabbit SERCA1 (COS7/HEK293 extracts and microsomes); The assay field of each row says which source was used; also called SERCA1-pcDNA3.1

In experiment [1] the target is B2. Briefly: coIP with antibodies to JPH1 from rabbit SR vesicles. Here is the method:
CoIP experiments were performed as described in (60), with preparations of SR vesicles isolated by the method of Eletr and Inesi (61, 62) from rabbit skeletal muscle from the back and hind limb (Pel-Freez, Rogers, Ark.), or from crude membrane extracts of COS7 cells prepared as described (59, 63). For the latter, COS7 cells were harvested in PBS at 48 h following transfection, collected by centrifugation, frozen in liquid N₂ and stored at −80° C. until needed. Briefly, pellets were homogenized with 30 strokes of a glass Dounce homogenizer in resuspension buffer (0.25 M sucrose, 10 mM Tris-HCl, pH 7.5, 20 mM CaCl₂, 3 mM 2-mercaptoethanol, 150 mM KCl), and solubilized with an equal volume of lysis buffer (40 mM HEPES-NaOH, pH 7.5, 300 mM NaCl, 2 mM EDTA, 1% Tween 20). SR vesicles were prepared for coIP by the same methods for resuspension and solubilization. The muscle and cell extracts were pre-cleared with 50 μL uncoated Dynabeads. The pre-cleared extracts were mixed with antibody-coated Dynabeads (5 ug antibody/50 uL beads) and incubated at 4° C. for 4 h. […] Proteins in the samples were separated by SDS-PAGE and analyzed via immunoblot as described (64).
The interaction between SERCA1 and sAnk1 was first analyzed by co-immunoprecipitation (coIP), performed with SR vesicles prepared from rabbit skeletal muscle (see Methods). […]

The target in experiment [2] is B2. Put plainly: cell-based or functional assay.
Experiment [3] deals with Maltose Binding Protein (MBP) alone (UniProt P0AEX9 27-392 = MBP). Briefly: blot overlay on rabbit SR vesicle proteins. Here is the method: A FLAG empty vector was used as controls. […] 7B. Amylose resin bound to bacterially expressed sAnk1₂₉₋₁₅₅-MBP fusion protein was incubated with COS7 extracts transfected to express SERCA1. MBP protein alone was used as a control. […] Ponceau staining was used as a loading control (top panel). 7C. SR vesicle preparations were used for blot overlay assays. Blots were first overlaid with sAnk1₂₉₋₁₅₅-MBP or MBP protein alone, followed by incubation with antibodies to MBP. […] Ponceau staining was used as a loading control (right panel).
The blot overlay assay was performed as described (50, 69) with minor modifications. […] The generation and purification of these fusion proteins were as described (51). A separate section of the membrane was reserved to identify SERCA1. Blots were washed extensively with overlay buffer and once with TBS, pH 7.4, plus 0.5% Tween-20 (TBST). The blots were blocked in TBST+4% non-fat dry milk for 4 h at 25° C. and probed with antibodies to MBP (overlay portion) and SERCA1 (non-overlay portion). Immunoblots were completed as described above.

Here are results for three molecules from patent US20160228502A1 (UNIVERSITY OF MARYLAND BALTIMORE, published 2016).

Where no end group is shown, it is not given here.

B1: junctophilin-1 (JPH1), native, rabbit skeletal muscle SR vesicles (other, UniProt Q9GKY8 1-662, looked up)
chain: MTGGRFDFDDGGTYCGGWEEGKAHGHGICTGPKGQGEYSGSWSHGFEVVGGYTWPSGNTYQGYWAQGKRHGLGVETKGKWMYRGEWSHGFKGRYGVRQSLCTPARYEGTWSNGLQDGYGVETYGDGGTYQGQWAGGMRHGYGVRQSVPYGMATVIRSPLRTSLASLRSEQSNGSVLHDAAAAADTPTGTRGGFVLNFHADAELAGKKKGGLFRRGSLLGSMKLRKSESKSSISSKRSSVRSDAAMSRISSSDANSTISFGDVDCDFCPVEDHVDATTTETYMGEWKNDKRNGFGISERSNGMKYEGEWANNKRHGYGCTVFPDGSKEEGKYKNNILVRGIRKQLIPIRNTKTREKVDRAIEGAQRAAAMARTKVEIANSRTAHARAKADAADQAALAARQECDIARAVARELSPDFYQPGPDYIKQRLQEGVDAKENPEEKVPAKPPTPKESPHFYRKGTTPPGSPEASPKYSRSPQPSPPKPAKKQNPSSGARLNQDKRGVAEEQVTAIVNKPLTSKAPTKEVGAAVSQSKYSGRHHVPNPSNGELHSQYHGYYVKLHAPQHPPVDAEDDDRSSPSSSALVHKPSPNKWSPPKSVTKPVAKESKAEPKAKKSELAIPKNPASNDSCPSMEREANSGPNSVMIVLVMLLNIGLAILFVHFLT
B1: in experiment [1], the binding result is reported as “no binding”. Consider {FLAG tag}-MERSTRELCLNFTVVLITVILIWLLVRSYQY (other, rabbit, UniProt P42532 1-31, looked up, not shown: small tags and cut ends, not fully specified) [N-terminal FLAG-tagged sarcolipin (NF-SLN)], for which the “ΔKCa2+ relative to SERCA1 Alone” value in experiment [2] is -0.37 pCa^2+ units.

Regarding B2, in experiment [3], the binding result is reported as “no binding (tested: 3 µg/mL)”.
